{
  "source": "patent CN117357474A",
  "about": "(JIANGSU QUANXIN BIOMEDICAL CO LTD, dated 2024)",
  "key": {"[1]": {"target": "T1, human IL-36R on cells (HT29 reporter cells, HT29, A431, human PBMC) (human, UniProt Q9HB29 20-575)", "T1 sequence (looked up)": "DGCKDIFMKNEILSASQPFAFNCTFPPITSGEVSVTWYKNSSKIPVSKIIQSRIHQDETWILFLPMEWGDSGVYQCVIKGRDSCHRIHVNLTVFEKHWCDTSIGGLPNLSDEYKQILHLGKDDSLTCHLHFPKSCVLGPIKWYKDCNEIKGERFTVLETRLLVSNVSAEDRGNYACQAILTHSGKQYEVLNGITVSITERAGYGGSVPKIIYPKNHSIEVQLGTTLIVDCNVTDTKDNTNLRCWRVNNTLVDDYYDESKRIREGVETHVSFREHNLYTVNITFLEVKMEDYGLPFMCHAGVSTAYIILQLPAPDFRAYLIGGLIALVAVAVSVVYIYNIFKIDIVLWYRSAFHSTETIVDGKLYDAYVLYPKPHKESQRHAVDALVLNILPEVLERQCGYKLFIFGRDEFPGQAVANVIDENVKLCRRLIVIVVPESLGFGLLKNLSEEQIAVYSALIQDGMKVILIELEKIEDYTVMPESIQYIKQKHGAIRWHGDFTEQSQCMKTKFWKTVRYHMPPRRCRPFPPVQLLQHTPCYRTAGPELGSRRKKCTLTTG", "assay": "cell-based or functional assay"}, "[2]": {"target": "T2, 人白介素-36受体 (human IL-36R), soluble antigen in the Biacore assay (human)", "T2 chain": "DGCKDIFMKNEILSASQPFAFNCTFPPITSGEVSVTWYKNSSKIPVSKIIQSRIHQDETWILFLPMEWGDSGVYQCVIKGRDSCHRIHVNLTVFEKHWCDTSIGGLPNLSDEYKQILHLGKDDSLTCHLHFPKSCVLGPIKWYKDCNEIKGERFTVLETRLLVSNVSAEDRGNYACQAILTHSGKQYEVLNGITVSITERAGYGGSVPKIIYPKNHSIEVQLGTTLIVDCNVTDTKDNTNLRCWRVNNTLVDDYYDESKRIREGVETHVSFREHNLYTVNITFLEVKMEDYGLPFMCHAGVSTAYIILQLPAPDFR", "assay": "SPR, Biacore T200, antibody captured on Protein A chip, antigen in flow, 25°C, 1:1 model, mean of three runs"}},
  "data": [
    {"binder": "Spesolimab (self-made from the B6 sequence of US9023995B2) (antibody, V domains shown) VH: QVQLVQSGAEVKKPGASVKVSCKASGYSFTSSWIHWVKQAPGQGLEWMGEINPGNVRTNYNENFRNKVTMTVDTSISTAYMELSRLRSDDTAVYYCTVVFYGEPYFPYWGQGTLVTVSS VL: QIVLTQSPGTLSLSPGERATMTCTASSSVSSSYFHWYQQKPGQAPRLWIYRTSRLASGVPDRFSGSGSGTDFTLTISRLEPEDAATYYCHQFHRSPLTFGAGTKLEIK", "values": [
      {"measurement": "抑制人IL-36(α、β、γ)诱导A431细胞释放CXCL-1的IC50", "setting": "[1]", "result": 22.5, "unit": "ng/mL"},
      {"measurement": "抑制人IL-36(α、β、γ)诱导A431细胞释放IL-8的IC50", "setting": "[1]", "result": 16, "unit": "ng/mL"},
      {"measurement": "抑制人IL-36(α、β、γ)诱导HT29细胞释放CXCL-1的IC50", "setting": "[1]", "result": 12.3, "unit": "ng/mL"},
      {"measurement": "抑制人IL-36(α、β、γ)诱导HT29细胞释放IL-8的IC50", "setting": "[1]", "result": 11.5, "unit": "ng/mL"},
      {"measurement": "抑制人IL-36(α、β、γ)诱导的HT29报告基因细胞STAT3磷酸化的IC50", "setting": "[1]", "result": 15.7, "unit": "ng/mL"},
      {"measurement": "抑制人IL-36β诱导的人PBMC释放IL-8活性的IC50", "setting": "[1]", "result": 26.6, "unit": "ng/mL"},
      {"measurement": "Kd", "setting": "[2]", "result": 0.862, "unit": "nM"},
      {"measurement": "koff", "setting": "[2]", "result": "3.11e-05", "unit": "s⁻¹"},
      {"measurement": "kon", "setting": "[2]", "result": 36000, "unit": "M⁻¹ s⁻¹"}
    ]},
    {"binder": "QX009N(HZD25-54) (antibody, V domains shown) VH: EVQLVESGGGLVQPGGSLRLSCAASGIDLSNYAMGWVRQAPGKGLEWVGYISGGGSAYYASWAKGRFTISRDNSKNTLYLQMNSLRAEDTAVYYCARWAIKSYFFGMDLWGQGTLVTVSS VL: DIQMTQSPSSVSASVGDRVTITCQASEYISSYLAWYQQKPGKAPKLLIYQASTLASGVPSRFSGSGSGTDFTLTISSLQPEDFATYYCQTNNAIHTYGGAFGGGTKVEIK", "values": [
      {"measurement": "抑制人IL-36(α、β、γ)诱导A431细胞释放CXCL-1的IC50", "setting": "[1]", "result": 4.12, "unit": "ng/mL"},
      {"measurement": "抑制人IL-36(α、β、γ)诱导A431细胞释放IL-8的IC50", "setting": "[1]", "result": 2.89, "unit": "ng/mL"},
      {"measurement": "抑制人IL-36(α、β、γ)诱导HT29细胞释放CXCL-1的IC50", "setting": "[1]", "result": 2.21, "unit": "ng/mL"},
      {"measurement": "抑制人IL-36(α、β、γ)诱导HT29细胞释放IL-8的IC50", "setting": "[1]", "result": 1.53, "unit": "ng/mL"},
      {"measurement": "抑制人IL-36(α、β、γ)诱导的HT29报告基因细胞STAT3磷酸化活性的IC50", "setting": "[1]", "result": 2.16, "unit": "ng/mL"},
      {"measurement": "抑制人IL-36β诱导的人PBMC细胞释放IL-8活性的IC50", "setting": "[1]", "result": 4.69, "unit": "ng/mL"},
      {"measurement": "Kd", "setting": "[2]", "result": 0.313, "unit": "nM"},
      {"measurement": "koff", "setting": "[2]", "result": "3.58e-05", "unit": "s⁻¹"},
      {"measurement": "kon", "setting": "[2]", "result": 114000, "unit": "M⁻¹ s⁻¹"}
    ]}
  ]
}
